Laboratory results: paper PMC8132391

Key:
[1] = target: Bn86287 (104-607 amino acids), COG4337 protein of Bigelowiella natans (Bigelowiella natans); experiment: SEC-MALS; Superdex 200 increase 10/300 GL, 293 K, 20 mM Tris-HCl pH 8.0, 100 mM NaCl; Bn86287 3.7 mg/ml and all2909 4.9 mg/ml, 30 ul injected
[2] = target: all2909, COG4337 protein of Anabaena sp. PCC 7120, without N-terminal leader (Anabaena sp. PCC 7120) (UniProt Q8YT18); experiment: as above

Substance	stoichiometry N [1]	stoichiometry N [2]
Bn86287 (104-607 amino acids), COG4337 protein of Bigelowiella natans (enzyme)	2	
all2909, COG4337 protein of Anabaena sp. PCC 7120, without N-terminal leader (from UniProt Q8YT18 31-205) (enzyme)		4
